{
  "source": "patent US20220211860A1",
  "about": "“PEPTIDE DERIVATIVES AND CONJUGATES THEREOF FOR TREATING CANCER” (priority 2019, published 2022)",
  "key": {"[1]": {"test": "In vitro stability (release of free MMAE, LC/MS), cell culture media", "format": "in vitro ADME", "conditions": "c-media, 1 μM, 37° C., 10 days", "procedure": "FIG. 11: Stability of LHRHD-(mc-vc-PABC)-MMAE (i.e. LD5-mc-vc-PABC-MMAE) in human plasma, mouse plasma, and cell culture media (c-media). The stability was measured based on the presence of free MMAE detected in the samples by LC-MS at each time point relative to time 0. Error Bars are standard deviations (STDV), p>0.05 and n=9 (mean is calculated from samples in triplicate in 3 independent experiments).\nThe metabolic stability of LD5-(mc-vc-PABC)-MMAE was investigated in cell culture media (c-media), human and mouse plasma. An LC/MS method was developed to detect both free MMAE and the presence of any degraded species from the whole construct, LD5-(mc-vc-PABC)-MMAE. To evaluate the stability of the valine-citrulline linkage, LD5-(mc-vc-PABC)-MMAE at 1 μM was incubated in c-media, human and mouse plasma at 37° C. for a period of 10 days. Aliquots were taken at pre-determined time intervals (t=0, 1, 2, 4, 7, 10 days) and analysed by LC/MS for the release of free MMAE."}, "female NOD/SCID mice": {"system": "female NOD/SCID mice", "test": "Phase II: repeat-dose MTD in mice", "format": "in vivo", "conditions": "for Body Weight: listed as LHRHD-(mc-vc-PABC)-MMAE, 10 mg/kg", "procedure": "(§1) LD-5-(mc-vc-PABC)-MMAE (10 mg/kg; determined by the results by Phase I) was administered IV once weekly on days 1 and 8 to groups of 3 female NOD/SCID mice (23±3 g). […] Body weights were recorded pre-dose and on days 1, 4, 8, 12 and 15. The animals were observed and mortality noted daily after first compound administration for 15 days. Gross necropsy was performed on all animals without tissue collection.\n(§2) Therefore, the MTD was not reached at this dose. With the corresponding ADCs bearing MMAE the MTD has been considerably lower."}, "[2]": {"test": "Phase II: repeat-dose MTD in mice", "format": "in vivo", "conditions": "mouse, in vivo; female NOD/SCID mice, IV; MTD not reached at 10 mg/kg", "procedure": "as §1, §2"}},
  "note": "Where “and” joins values, the source holds several entries; their conditions need not be identical. Identical values can stand only once.",
  "data": [
    {"smiles": "CCNC(=O)[C@@H]1CCCN1C(=O)[C@H](CCCNC(=N)N)NC(=O)[C@H](CC(C)C)NC(=O)[C@@H](CCCCNC1CC(=O)N(CCCCCC(=O)N[C@H](C(=O)N[C@@H](CCCNC(N)=O)C(=O)Nc2ccc(COC(=O)N(C)[C@H](C(=O)N[C@H](C(=O)N(C)[C@@H]([C@@H](C)CC)[C@@H](CC(=O)N3CCC[C@H]3[C@H](OC)[C@@H](C)C(=O)N[C@H](C)[C@@H](O)c3ccccc3)OC)C(C)C)C(C)C)cc2)C(C)C)C1=O)NC(=O)[C@H](Cc1ccc(O)cc1)NC(=O)[C@H](CO)NC(=O)[C@H](Cc1c[nH]c2ccccc12)NC(=O)[C@H](Cc1c[nH]cn1)NC(=O)[C@@H]1CCC(=O)N1", "note": "(stereo partly drawn) [LD5-mc-vc-PABC-MMAE]", "values": [
      {"measurement": "total drug released as MMAE", "setting": "[1]", "result": "less than 3%"},
      {"measurement": "adverse effects (acute toxic symptoms, autonomic effects)", "setting": "female NOD/SCID mice; 10 mg/kg IV, after first and second administrations on Day 1 and 8", "result": "No marked adverse effects"},
      {"measurement": "Mortality (death/test)", "setting": "female NOD/SCID mice; IV 10 mg/kg on days 1 and 8, Day 1", "result": "0/3"},
      {"measurement": "Body Weight", "setting": "female NOD/SCID mice; IV 10 mg/kg on days 1 and 8, Day 1, individual animals", "result": "22 g (2×) and 21 g"},
      {"measurement": "Mortality (death/test)", "setting": "female NOD/SCID mice; IV 10 mg/kg on days 1 and 8, Day 2", "result": "0/3"},
      {"measurement": "Mortality (death/test)", "setting": "female NOD/SCID mice; IV 10 mg/kg on days 1 and 8, Day 3", "result": "0/3"},
      {"measurement": "Mortality (death/test)", "setting": "female NOD/SCID mice; IV 10 mg/kg on days 1 and 8, Day 4", "result": "0/3"},
      {"measurement": "Body Weight", "setting": "female NOD/SCID mice; IV 10 mg/kg on days 1 and 8, Day 4, individual animals", "result": "23 g (2×) and 22 g"},
      {"measurement": "Mortality (death/test)", "setting": "female NOD/SCID mice; IV 10 mg/kg on days 1 and 8, Day 5", "result": "0/3"},
      {"measurement": "Mortality (death/test)", "setting": "female NOD/SCID mice; IV 10 mg/kg on days 1 and 8, Day 6", "result": "0/3"},
      {"measurement": "Mortality (death/test)", "setting": "female NOD/SCID mice; IV 10 mg/kg on days 1 and 8, Day 7", "result": "0/3"},
      {"measurement": "Mortality (death/test)", "setting": "female NOD/SCID mice; IV 10 mg/kg on days 1 and 8, Day 8", "result": "0/3"},
      {"measurement": "Body Weight", "setting": "female NOD/SCID mice; IV 10 mg/kg on days 1 and 8, Day 8, individual animals", "result": "23 g (2×) and 22 g"},
      {"measurement": "Mortality (death/test)", "setting": "female NOD/SCID mice; IV 10 mg/kg on days 1 and 8, Day 9", "result": "0/3"},
      {"measurement": "Mortality (death/test)", "setting": "female NOD/SCID mice; IV 10 mg/kg on days 1 and 8, Day 10", "result": "0/3"},
      {"measurement": "Mortality (death/test)", "setting": "female NOD/SCID mice; IV 10 mg/kg on days 1 and 8, Day 11", "result": "0/3"},
      {"measurement": "Mortality (death/test)", "setting": "female NOD/SCID mice; IV 10 mg/kg on days 1 and 8, Day 12", "result": "0/3"},
      {"measurement": "Body Weight", "setting": "female NOD/SCID mice; IV 10 mg/kg on days 1 and 8, Day 12, individual animals", "result": "24 g (2×) and 23 g"},
      {"measurement": "Mortality (death/test)", "setting": "female NOD/SCID mice; IV 10 mg/kg on days 1 and 8, Day 13", "result": "0/3"},
      {"measurement": "Mortality (death/test)", "setting": "female NOD/SCID mice; IV 10 mg/kg on days 1 and 8, Day 14", "result": "0/3"},
      {"measurement": "Mortality (death/test)", "setting": "female NOD/SCID mice; IV 10 mg/kg on days 1 and 8, Day 15", "result": "0/3"},
      {"measurement": "Body Weight", "setting": "female NOD/SCID mice; IV 10 mg/kg on days 1 and 8, Day 15, individual animals", "result": "25 g (2×) and 24 g"},
      {"measurement": "gross necropsy", "setting": "female NOD/SCID mice; both phases", "result": "No abnormality was found"},
      {"measurement": "MTD", "setting": "[2]", "result": "> 10", "unit": "mg/kg"}
    ]}
  ]
}
